Measurements as given in publication PMC2673435.

Experiments:
Experiment in all cases: fluorescence polarization
RPA•2(WF) = RPA•2(WF) (Saccharomyces cerevisiae, UniProt P22336;P26754;P26755 1-621;1-273;1-122, W101A;F143A)
RPA•2(MM2) = RPA•2(MM2) (Saccharomyces cerevisiae, UniProt P22336;P26754;P26755 1-621;1-273;1-122, D80A;T82A;E103A;D104A;D158A;E162A)
RPA•2(ERK) = RPA•2(ERK) (Saccharomyces cerevisiae, UniProt P22336;P26754;P26755 1-621;1-273;1-122, I96L;E97A;R99A;K100A)
RPA•2(DT) = RPA•2(DT) (Saccharomyces cerevisiae, UniProt P22336;P26754;P26755 1-621;1-273;1-122, D80A;T82A)
RPA•2(DT), sequence (P22336 whole entry, chain 1 of 3): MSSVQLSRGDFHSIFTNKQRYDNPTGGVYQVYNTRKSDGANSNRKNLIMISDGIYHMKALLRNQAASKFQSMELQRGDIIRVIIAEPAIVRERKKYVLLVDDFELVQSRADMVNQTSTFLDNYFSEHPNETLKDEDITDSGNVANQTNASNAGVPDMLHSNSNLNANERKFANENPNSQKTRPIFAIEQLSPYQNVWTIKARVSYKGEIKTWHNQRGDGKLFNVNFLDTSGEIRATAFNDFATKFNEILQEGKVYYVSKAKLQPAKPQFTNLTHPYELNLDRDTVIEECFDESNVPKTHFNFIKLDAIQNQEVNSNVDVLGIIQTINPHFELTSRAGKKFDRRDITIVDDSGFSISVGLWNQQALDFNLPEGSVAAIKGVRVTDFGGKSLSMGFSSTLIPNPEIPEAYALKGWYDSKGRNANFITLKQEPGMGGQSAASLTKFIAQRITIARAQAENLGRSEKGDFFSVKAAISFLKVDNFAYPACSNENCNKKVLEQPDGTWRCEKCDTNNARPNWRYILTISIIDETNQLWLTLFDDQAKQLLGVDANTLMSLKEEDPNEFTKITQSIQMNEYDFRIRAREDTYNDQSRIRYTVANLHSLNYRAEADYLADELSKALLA
RPA•2(DT), sequence (P26754 whole entry D80A/T82A, chain 2 of 3): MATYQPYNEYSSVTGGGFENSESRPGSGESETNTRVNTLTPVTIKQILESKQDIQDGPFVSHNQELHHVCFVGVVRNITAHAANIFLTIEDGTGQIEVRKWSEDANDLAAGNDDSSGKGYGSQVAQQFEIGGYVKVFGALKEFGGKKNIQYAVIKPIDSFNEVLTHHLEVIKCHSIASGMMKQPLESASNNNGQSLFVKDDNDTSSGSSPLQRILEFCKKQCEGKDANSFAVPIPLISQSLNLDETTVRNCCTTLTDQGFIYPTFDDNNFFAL
RPA•2(DT), sequence (P26755 whole entry, chain 3 of 3): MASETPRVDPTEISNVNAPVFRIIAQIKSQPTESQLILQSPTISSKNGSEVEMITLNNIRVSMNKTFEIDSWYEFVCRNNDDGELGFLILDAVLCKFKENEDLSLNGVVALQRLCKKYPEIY

RPA•2(MM1) = RPA•2(MM1) (Saccharomyces cerevisiae, UniProt P22336;P26754;P26755 1-621;1-273;1-122, D80A;T82A;I96L;E97A;R99A;K100A;K146A;K147A)
RPA•2(MM1), sequence (P22336 whole entry, chain 1 of 3): as the sequence (P22336 whole entry, chain 1 of 3) above
RPA•2(MM1), sequence (P26754 whole entry D80A/T82A/I96L/E97A/R99A/K100A/K146A/K147A, chain 2 of 3): as the sequence (P26754 whole entry D80A/T82A, chain 2 of 3) above, with I96L, E97A, R99A, K100A, K146A, K147A counted along it
RPA•2(MM1), sequence (P26755 whole entry, chain 3 of 3): as the sequence (P26755 whole entry, chain 3 of 3) above

RPA•2(ERK), sequence (P22336 whole entry, chain 1 of 3): as the sequence (P22336 whole entry, chain 1 of 3) above
RPA•2(ERK), sequence (P26754 whole entry I96L/E97A/R99A/K100A, chain 2 of 3): as the sequence (P26754 whole entry D80A/T82A, chain 2 of 3) above, with A80D, A82T, I96L, E97A, R99A, K100A counted along it
RPA•2(ERK), sequence (P26755 whole entry, chain 3 of 3): as the sequence (P26755 whole entry, chain 3 of 3) above
RPA•2(WF), sequence (P22336 whole entry, chain 1 of 3): as the sequence (P22336 whole entry, chain 1 of 3) above
RPA•2(WF), sequence (P26754 whole entry W101A/F143A, chain 2 of 3): as the sequence (P26754 whole entry D80A/T82A, chain 2 of 3) above, with A80D, A82T, W101A, F143A counted along it
RPA•2(WF), sequence (P26755 whole entry, chain 3 of 3): as the sequence (P26755 whole entry, chain 3 of 3) above
RPA•2(MM2), sequence (P22336 whole entry, chain 1 of 3): as the sequence (P22336 whole entry, chain 1 of 3) above
RPA•2(MM2), sequence (P26754 whole entry D80A/T82A/E103A/D104A/D158A/E162A, chain 2 of 3): as the sequence (P26754 whole entry D80A/T82A, chain 2 of 3) above, with E103A, D104A, D158A, E162A counted along it
RPA•2(MM2), sequence (P26755 whole entry, chain 3 of 3): as the sequence (P26755 whole entry, chain 3 of 3) above

## TTTTTTTTTTTTTTTTTTTTTTTTTTTTTT (ssDNA) [dT30]
RPA•2(WF)
  Ka: 3.85e+07 M⁻¹
RPA•2(MM2)
  binding result: binds
RPA•2(ERK)
  binding result: binds
RPA•2(DT)
  binding result: binds
RPA•2(MM1)
  binding result: binds
